EC50 and Mouse agonist-CTG: IC50 data for 6 molecules are collected here from patent publication US20210269496A1 (PANDION OPERATIONS, published 2021).

As usually defined, the EC50 is the concentration that produces a half-maximal response.

Numbering of substitutions follows the chain as printed. Numbers in names are those of the source.

First the molecules themselves.
T1: CD25 (Homo sapiens (Human), UniProt P01589 22-240)
T1 construct: also called IL-2R alpha chain
T1 sequence: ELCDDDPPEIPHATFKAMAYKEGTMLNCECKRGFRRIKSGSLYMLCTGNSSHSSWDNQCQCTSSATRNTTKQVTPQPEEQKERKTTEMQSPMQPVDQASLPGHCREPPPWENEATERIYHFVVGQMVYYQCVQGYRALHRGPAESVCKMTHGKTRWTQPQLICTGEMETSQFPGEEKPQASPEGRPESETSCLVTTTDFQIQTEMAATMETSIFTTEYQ

B1: human IL-2 mutein polypeptide fused N-terminally to human IgG1 Fc domain (SEQ ID NO: 57) (Fc fusion)
chain: APTSSSTKKTQLQLEHLLLDLQMILNGINNYKNPKLTRMLTFKFYMPKKATELKHLQCLEEELKPLEEALNLAPSKNFHLRPRDLISDINVIVLELKGSETTFMCEYADETATIVEFLNRWITFSQSIISTLTGGGGSGGGGSGGGGSGGGGSDKTHTCPPCPAPEAAGAPSVFLFPPKPKDTLMISRTPEVTCVVVDVSHEDPEVKFNWYVDGVEVHNAKTKPREEQYNSTYRVVSVLTVLHQDWLNGKEYKCKVSNKALPAPIEKTISKAKGQPREPQVYTLPPSREEMTKNQVSLTCLVKGFYPSDIAVEWESNGQPENNYKTTPPVLDSDGSFFLYSKLTVDKSRWQQGNVFSCSVMHEALHNHYTQKSLSLSPG
notes: also called IL-2 N88D V69A, Q74P-G4Sx4-Fc
B2: SEQ ID NO 53 (Fc fusion)
chain: B1 chain with L53I
notes: also called IL-2 L53I N88D V69A, Q74P,C125S-G4Sx4-Fc
B3: SEQ ID NO 56 (Fc fusion)
chain: B1 chain with L118I
notes: also called IL-2 L118I N88D V69A, Q74P, C125S-G4Sx4-Fc
B4: SEQ ID NO 55 (Fc fusion)
chain: B1 chain with L80I
notes: also called IL-2 L80I N88D V69A, C125S Q74P-G4Sx4-Fc
B5: SEQ ID NO 54 (Fc fusion)
chain: B1 chain with L56I
notes: also called IL-2 L56I N88D V69A, Q74P, C125S-G4Sx4-Fc

One assay has as its target T1, CD25. As to the kind of experiment: ELISA, CD25 coated at 0.5 µg/mL, detection with biotinylated anti-IL-2 polyclonal. The method, then: An immunosorbent plate was coated with CD25 at a concentration of 0.5 μg/mL in PBS pH 7.4, 75 μL/well, and incubated overnight at 4° C. Wells were washed with PBS pH 7.4 containing 0.05% Tween-20 (wash buffer) three times, and then blocked with 200 μL/well 1% BSA in PBS pH 7.4 (block buffer) for two hours at room temperature. After three washes with wash buffer IL-2 muteins SEQ ID NO: 53, SEQ ID NO: 54, SEQ ID NO: 55, SEQ ID NO: 56 were diluted to eleven-two fold serial dilution in PBS containing 1% BSA and 0.05% Tween-20 (assay buffer) with 2 nM being the highest concentration. The diluted material was added to the CD25 coated plate at 75 μL/well for 1 hour at room temperature. After three washes with wash buffer, a goat biotinylated anti-IL-2 polyclonal antibody, diluted to 0.05 μg/mL in assay buffer, was added to the plate at 75 μL/well for 1 hour at room temperature. After three washes with wash buffer high sensitivity streptavidin HRP diluted in assay buffer at 1:5000 was added to the plate at 75 μL/well for 15 minutes at room temperature. After three washes with wash buffer and 1 wash with wash buffer (with no Tween-20), the assay was developed with TMB, and stopped with 1N HCL. OD 450 nm was measured. The experiment included appropriate controls for non-specific binding of the molecules to the plate/block in the absence of CD25. […] Additionally, there was no detection of any compound at any concentration tested, when CD25 was not present on the plate surface, indicating none of the test compounds were interacting non-specifically with the plate surface. Thus, the muteins of Example 19 can bind to CD25.
B1 returned an EC50 of under 1 nM.
The same measure, in the same setting: in the case of B2 it was under 1 nM.
The same measure, in the same setting: as for B3, the figure is under 1 nM.
Still for that read-out and setting: as for B4, the figure is under 1 nM; as for B5, under 1 nM.

The next assay deals with mouse PD-1 on primary mouse T cell blasts (mouse) (UniProt Q02242). As to the kind of experiment: cell-based or functional assay.
Sequence of mouse PD-1 on primary mouse T cell blasts (mouse) (Q02242 25-288): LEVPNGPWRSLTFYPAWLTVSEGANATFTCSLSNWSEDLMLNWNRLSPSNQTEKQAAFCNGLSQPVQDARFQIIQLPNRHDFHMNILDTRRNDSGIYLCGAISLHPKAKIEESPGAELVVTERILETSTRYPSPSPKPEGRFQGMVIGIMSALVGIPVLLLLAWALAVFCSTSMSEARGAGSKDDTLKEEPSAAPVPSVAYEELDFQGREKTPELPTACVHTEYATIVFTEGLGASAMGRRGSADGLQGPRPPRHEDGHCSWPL
For the molecule “PD-L1 (reference in the table of Example 36) (ligand)”, the Mouse agonist-CTG: IC50 was found to be 2.4 nM.
